B1: Type 3 secretion system chaperone PscE (Pseudomonas aeruginosa (strain ATCC 15692 / PAO1 / 1C / PRS 101 / LMG 12228)), Q9I317 (parent)
chain: MMTALETRLSVADGTHAAALRQRLQAALAECRRELARGACPEHFQFLQQQARALEGGLGILSQLTED
partner: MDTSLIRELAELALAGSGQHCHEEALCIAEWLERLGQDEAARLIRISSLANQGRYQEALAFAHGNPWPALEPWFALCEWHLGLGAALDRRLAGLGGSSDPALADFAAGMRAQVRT
B2: Type 3 secretion system chaperone PscG (Pseudomonas aeruginosa (strain ATCC 15692 / PAO1 / 1C / PRS 101 / LMG 12228)), P95435 (parent)
chain: B1 partner
partner: B1 chain

Variants of: B1
Conditions: with pscg_pseae pscG, P95435

Variant | effect of a mutation on the interaction
G57D | disrupting interaction
L20S | decreasing interaction

Variants of: B2
Conditions: with psce_pseae pscE, Q9I317

Variant | effect of a mutation on the interaction
L5S;L9S | decreasing interaction
I28S | decreasing interaction
L5S | decreasing interaction
I28S;W31S | decreasing interaction
L9S | decreasing interaction
